Here are results for 150 variants from article PMC11480844 (2024).

Substitutions are numbered along the chain they refer to.

B1: H2-Kb / Ed28 (parent complex)
chain 1: AQSVTQPDARVTVSEGASLQLRCKYSYFGTPYLFWYVQYPRQGLQLLLKYYPGDPVVQGVNGFEAEFSKSNSSFHLRKASVHWSDWAVYFCAVSPGSGGKLTLGAGTRLQVNL
chain 2: DSGVVQSPRHIIKEKGGRSVLTCIPISGHSNVVWYQQTLGKELKFLIQHYEKVERDKGFLPSRFSVQQFDDYHSEMNMSALELEDSAMYFCASSPRASDYTFGSGTRLLVI
chain 3: not shown
chain 4: IQKTPQIQVYSRHPPENGKPNILNCYVTQFHPPHIEIQMLKNGKKIPKVEMSDMSFSKDWSFYILAHTEFTPTETDTYACRVKHDSMAEPKTVYWDRDM
chain 5: SIINFEKL
B2: H2-Kb / Ed21 (parent complex)
chain 1: AQSVTQPDARVTVSEGASLQLRCKYSYFGTPYLFWYVQYPRQGLQLLLKYYPGDPVVQGVNGFEAEFSKSNSSFHLRKASVHWSDWAVYFCAVSMSGGYKVVFGSGTRLLVSP
chain 2: B1 chain 2 with A97Q, S98T
chain 3: not shown
chain 4: B1 chain 4
chain 5: SIINFEKL
Further: test concentration or dose not given here.

The first assay covers variants of B1. Kind of assay: % of reporter cells activated (NFAT-GFP), raw.
With chain 5 E6L, the ratio to parent amounted to 0.014.
Turning to chain 5 E6H, the ratio to parent amounted to 0.116.
Turning to chain 5 E6W, the ratio to parent stood at 0.00894.
The same measure, in the same setting: to chain 5 E6F belongs 0.013; to chain 5 E6K, 0.702.
Turning to chain 5 E6S, the ratio to parent stood at 0.039.
Same read-out and setting: for chain 5 E6P the value was 0.0742; for chain 5 E6I, 0.0144.
On the same count and under the same terms, for chain 5 E6Y the value was 0.0885.
Same read-out and setting: to chain 5 E6Q belongs 0.315; to chain 5 E6V, 0.0103.
As to chain 5 E6C, the ratio to parent was 0.0175.
The same measure, in the same setting: to chain 5 E6G belongs 0.651; to chain 5 E6D, 0.533; to chain 5 E6A, 0.238.
On the same count and under the same terms, for chain 5 E6R the value was 0.0718; for chain 5 E6T, 0.0253.
In the case of chain 5 E6N, the ratio to parent came out at 0.22.
Still for that read-out and setting: for chain 5 L8D the value was 0.475; for chain 5 L8Q, 0.602; for chain 5 L8E, 0.493.
For the variant chain 5 L8W, the ratio to parent worked out at 0.685.
For chain 5 L8A, the ratio to parent turned out to be 0.709.
The same measure, in the same setting: to chain 5 L8V belongs 0.761; to chain 5 L8I, 1.02.
On the same count and under the same terms, to chain 5 L8F belongs 1.02; to chain 5 L8K, 0.584; to chain 5 L8C, 0.616.
Still for that read-out and setting: for chain 5 L8G the value was 0.947; for chain 5 L8M, 0.862; for chain 5 L8R, 0.915.
On to chain 5 L8H, for which the ratio to parent stood at 0.85.
Same read-out and setting: for chain 5 L8P the value was 0.83; for chain 5 L8S, 0.563.
Same read-out and setting: for chain 5 L8T the value was 0.832; for chain 5 K7N, 0.242; for chain 5 K7H, 0.81.
Take chain 5 K7I: the ratio to parent stood at 0.197.
Still for that read-out and setting: to chain 5 K7W belongs 0.407.
Still for that read-out and setting: to chain 5 K7M belongs 0.104; to chain 5 K7D, 0.00937; to chain 5 K7L, 0.244.
The same measure, in the same setting: to chain 5 K7Y belongs 0.48; to chain 5 K7R, 0.496; to chain 5 K7F, 0.0786.
Consider chain 5 K7C, for which the ratio to parent is 0.0363.
On the same count and under the same terms, for chain 5 K7P the value was 0.145; for chain 5 K7T, 0.115.
The same measure, in the same setting: to chain 5 K7A belongs 0.162; to chain 5 K7S, 0.406; to chain 5 K7G, 0.185.
With chain 5 K7Q, the ratio to parent worked out at 0.141.
As to chain 5 K7V, the ratio to parent amounted to 0.159.
On the same count and under the same terms, to chain 5 S1G belongs 0.898; to chain 5 S1V, 0.67; to chain 5 S1Y, 0.825.
Still for that read-out and setting: to chain 5 S1N belongs 0.293; to chain 5 S1A, 1.05; to chain 5 S1E, 0.798.
On the same count and under the same terms, for chain 5 S1R the value was 0.321; for chain 5 S1T, 1.13; for chain 5 S1I, 0.433.
As to chain 5 S1L, the ratio to parent worked out at 0.332.
Same read-out and setting: for chain 5 S1D the value was 0.536.
Still for that read-out and setting: for chain 5 S1C the value was 0.59; for chain 5 S1H, 1.
Still for that read-out and setting: to chain 5 S1Q belongs 0.81; to chain 5 S1P, 0.693; to chain 5 S1F, 0.965.
Take chain 5 S1K: the ratio to parent was determined as 0.445.
On the same count and under the same terms, for chain 5 S1W the value was 0.723.
Still for that read-out and setting: for chain 5 I2F the value was 1.01; for chain 5 I2K, 0.837.
The same measure, in the same setting: to chain 5 I2L belongs 1.14; to chain 5 I2H, 0.659; to chain 5 I2P, 1.2.
chain 5 I2Y: the ratio to parent came to 0.58.
Same read-out and setting: to chain 5 I2M belongs 0.857; to chain 5 I2R, 0.92; to chain 5 I2V, 1.3.
As for chain 5 I2C, the ratio to parent came to 1.15.
Consider chain 5 I2W, for which the ratio to parent is 0.702.
On the same count and under the same terms, to chain 5 I2E belongs 0.981; to chain 5 I2S, 1.14.
On the same count and under the same terms, to chain 5 I2N belongs 0.898; to chain 5 I2G, 1.06; to chain 5 I2D, 1.3.
On the same count and under the same terms, to chain 5 I2A belongs 1.25; to chain 5 I2Q, 0.574.
As to chain 5 N4K, the ratio to parent worked out at 0.504.
The same measure, in the same setting: for chain 5 N4Q the value was 0.00495.
For chain 5 N4Y, the ratio to parent was 0.0195.
Same read-out and setting: for chain 5 N4P the value was 0.00481.
Still for that read-out and setting: to chain 5 N4E belongs 0.0544.
Same read-out and setting: to chain 5 N4I belongs 0.167.
For the variant chain 5 N4F, the ratio to parent was 0.0123.
Same read-out and setting: for chain 5 N4C the value was 0.0197; for chain 5 N4R, 0.227.
Still for that read-out and setting: for chain 5 N4L the value was 0.329.
On the same count and under the same terms, for chain 5 N4A the value was 0.0295; for chain 5 N4D, 0.035; for chain 5 N4T, 0.0349.
chain 5 N4V: the ratio to parent stood at 0.00909.
Same read-out and setting: for chain 5 N4H the value was 0.0455.
Same read-out and setting: to chain 5 N4M belongs 0.00709; to chain 5 F5P, 0.74.
On the same count and under the same terms, to chain 5 F5W belongs 0.773.
As to chain 5 F5Y, the ratio to parent is 0.875.
Consider chain 5 F5D, for which the ratio to parent worked out at 0.687.
Same read-out and setting: for chain 5 F5V the value was 0.772; for chain 5 F5E, 0.483; for chain 5 F5L, 0.844.
The same measure, in the same setting: to chain 5 F5T belongs 1.17; to chain 5 F5G, 0.564; to chain 5 F5N, 0.742.
In the case of chain 5 F5K, the ratio to parent stood at 0.56.
Still for that read-out and setting: to chain 5 F5A belongs 0.81; to chain 5 F5C, 1.13.
On the same count and under the same terms, to chain 5 F5H belongs 1; to chain 5 F5R, 0.774; to chain 5 F5M, 0.741.
The same measure, in the same setting: to chain 5 I3F belongs 0.6; to chain 5 I3W, 0.592; to chain 5 I3Y, 0.369.
For chain 5 I3K, the ratio to parent came out at 0.651.
Same read-out and setting: to chain 5 I3R belongs 0.134.
For chain 5 I3V, the ratio to parent was 1.08.
On the same count and under the same terms, to chain 5 I3D belongs 0.727; to chain 5 I3P, 0.898.
The same measure, in the same setting: to chain 5 I3H belongs 1.24; to chain 5 I3E, 0.656.
The same measure, in the same setting: for chain 5 I3L the value was 0.98; for chain 5 I3S, 1.14; for chain 5 I3M, 0.959.
With chain 5 I3Q, the ratio to parent turned out to be 0.449.
On to chain 5 I3C, for which the ratio to parent was determined as 0.894.
The same measure, in the same setting: for chain 5 I3A the value was 0.632; for chain 5 I3G, 0.836.
The same measure, in the same setting: for chain 5 I3N the value was 1.16.
Same read-out and setting: for chain 5 I3T the value was 1.31.

In the next assay the parent is B2. Kind of assay: % of reporter cells activated (NFAT-GFP), raw.
Consider chain 5 I2V, for which the ratio to parent stood at 1.04.
Regarding chain 5 F5I, the ratio to parent turned out to be 0.891.
Same read-out and setting: to chain 5 F5S belongs 0.886.
As to chain 5 F5N, the ratio to parent was determined as 0.947.
Still for that read-out and setting: to chain 5 E6V belongs 0.0269.
Regarding chain 5 E6Q, the ratio to parent is 0.918.
The same measure, in the same setting: to chain 5 L8G belongs 0.966.
For chain 5 K7N, the ratio to parent came out at 0.706.
As to chain 5 S1T, the ratio to parent stood at 0.927.
Still for that read-out and setting: for chain 5 N4L the value was 0.618.
